In article PMC10786891, “Massively parallel profiling of RNA-targeting CRISPR-Cas13d”:

T1: EsCas13d, nuclease-dead (Eubacterium siraeum, UniProt B0MS50, R295A;H300A;R849A;H854A)
T1 sequence: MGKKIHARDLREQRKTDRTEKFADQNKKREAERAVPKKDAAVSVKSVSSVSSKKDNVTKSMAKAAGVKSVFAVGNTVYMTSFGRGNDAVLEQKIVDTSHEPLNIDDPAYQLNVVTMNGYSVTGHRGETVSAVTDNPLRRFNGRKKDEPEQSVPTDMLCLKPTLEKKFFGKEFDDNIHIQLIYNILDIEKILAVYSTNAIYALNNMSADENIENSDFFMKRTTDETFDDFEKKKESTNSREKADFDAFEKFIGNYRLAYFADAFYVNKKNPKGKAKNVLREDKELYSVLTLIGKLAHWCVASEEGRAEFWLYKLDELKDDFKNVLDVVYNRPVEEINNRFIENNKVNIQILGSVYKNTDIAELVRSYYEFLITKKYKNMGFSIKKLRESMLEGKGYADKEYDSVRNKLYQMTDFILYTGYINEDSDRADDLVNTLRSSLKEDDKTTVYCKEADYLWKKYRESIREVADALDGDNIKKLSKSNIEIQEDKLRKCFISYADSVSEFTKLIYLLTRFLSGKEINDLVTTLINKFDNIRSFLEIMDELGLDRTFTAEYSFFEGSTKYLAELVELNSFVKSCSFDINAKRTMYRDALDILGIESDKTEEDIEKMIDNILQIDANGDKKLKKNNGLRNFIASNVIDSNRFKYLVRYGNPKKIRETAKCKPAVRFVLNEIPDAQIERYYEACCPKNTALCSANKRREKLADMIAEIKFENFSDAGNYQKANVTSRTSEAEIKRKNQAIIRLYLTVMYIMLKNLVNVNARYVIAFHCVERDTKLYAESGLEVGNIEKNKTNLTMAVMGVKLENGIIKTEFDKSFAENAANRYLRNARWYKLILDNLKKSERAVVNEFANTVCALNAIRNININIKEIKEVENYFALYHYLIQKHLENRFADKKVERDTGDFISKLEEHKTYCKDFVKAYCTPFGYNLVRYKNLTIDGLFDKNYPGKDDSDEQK


Biological target: T1, EsCas13d, nuclease-dead
Assay: crRNA (strand 1, pre-loaded); Mg2+; 40 mM Tris-HCl pH 7.5, 150 mM NaCl, 6 mM MgCl2, 1 mM DTT, 0.1% Tween-20, 0.2 mg/ml BSA; 25 C; 10 min per concentration, then washed
Details: tags: His6-TwinStrep-SUMO cleaved; N-terminal SNAP kept (SNAP-Surface 488); label: 3' end held by stalled T7 RNA polymerase

Row | Binder | Kd [nM]
1 | target 1 insU 3' of 1,insG 3' of 1 (mixed) RNA 1: CACCCGUGCAAAAAUGCAGGGGUCUAAAACUGAGCGGAUAACCUCUCUAUGG RNA 2: GGGAAUGGAUCCACAUCUACGAAUUCGUACCAUAGAGAGGUUAUCCGCUCAUGCCGAGAUCGGAAGAGCACACGU | 11.6 ± 1
2 | target 1 G12A,C21A (mixed) RNA 1: CACCCGUGCAAAAAUGCAGGGGUCUAAAACUGAGCGGAUAACCUCUCUAUGG RNA 2: GGGAAUGGAUCCACAUCUACGAAUUCGUACAAUAGAGAGAUUAUCCGCUCACCGAGAUCGGAAGAGCACACGU | 34.8 ± 2.2
3 | target 1 G12C,C21U (mixed) RNA 1: CACCCGUGCAAAAAUGCAGGGGUCUAAAACUGAGCGGAUAACCUCUCUAUGG RNA 2: GGGAAUGGAUCCACAUCUACGAAUUCGUACUAUAGAGAGCUUAUCCGCUCACCGAGAUCGGAAGAGCACACGU | 6 ± 0.5
4 | target 1 insA 3' of 22,insC 3' of 12 (mixed) RNA 1: CACCCGUGCAAAAAUGCAGGGGUCUAAAACUGAGCGGAUAACCUCUCUAUGG RNA 2: GGGAAUGGAUCCACAUCUACGAAUUCGUACACAUAGAGAGGCUUAUCCGCUCACCGAGAUCGGAAGAGCACACGU | 20.1 ± 1.2
5 | target 1 C4A,U11G (mixed) RNA 1: CACCCGUGCAAAAAUGCAGGGGUCUAAAACUGAGCGGAUAACCUCUCUAUGG RNA 2: GGGAAUGGAUCCACAUCUACGAAUUCGUACCAUAGAGAGGGUAUCCGAUCACCGAGAUCGGAAGAGCACACGU | 8.4 ± 0.7
6 | target 1 insA 3' of 22,insA 3' of 13 (mixed) RNA 1: CACCCGUGCAAAAAUGCAGGGGUCUAAAACUGAGCGGAUAACCUCUCUAUGG RNA 2: GGGAAUGGAUCCACAUCUACGAAUUCGUACACAUAGAGAGAGUUAUCCGCUCACCGAGAUCGGAAGAGCACACGU | 6 ± 0.4
7 | target 1 U3A,C6A (mixed) RNA 1: CACCCGUGCAAAAAUGCAGGGGUCUAAAACUGAGCGGAUAACCUCUCUAUGG RNA 2: GGGAAUGGAUCCACAUCUACGAAUUCGUACCAUAGAGAGGUUAUCAGCACACCGAGAUCGGAAGAGCACACGU | 5.02 ± 0.21
8 | target 1 U10A,G13A (mixed) RNA 1: CACCCGUGCAAAAAUGCAGGGGUCUAAAACUGAGCGGAUAACCUCUCUAUGG RNA 2: GGGAAUGGAUCCACAUCUACGAAUUCGUACCAUAGAGAAGUAAUCCGCUCACCGAGAUCGGAAGAGCACACGU | 9.5 ± 1
9 | target 1 insU 3' of 18,insU 3' of 18 (mixed) RNA 1: CACCCGUGCAAAAAUGCAGGGGUCUAAAACUGAGCGGAUAACCUCUCUAUGG RNA 2: GGGAAUGGAUCCACAUCUACGAAUUCGUACCAUAUUGAGAGGUUAUCCGCUCACCGAGAUCGGAAGAGCACACGU | 30.9 ± 2
10 | target 1 C7U,U8A (mixed) RNA 1: CACCCGUGCAAAAAUGCAGGGGUCUAAAACUGAGCGGAUAACCUCUCUAUGG RNA 2: GGGAAUGGAUCCACAUCUACGAAUUCGUACCAUAGAGAGGUUAAUCGCUCACCGAGAUCGGAAGAGCACACGU | 12.9 ± 0.7
11 | target 1 insU 3' of 22,insG 3' of 6 (mixed) RNA 1: CACCCGUGCAAAAAUGCAGGGGUCUAAAACUGAGCGGAUAACCUCUCUAUGG RNA 2: GGGAAUGGAUCCACAUCUACGAAUUCGUACUCAUAGAGAGGUUAUCCGGCUCACCGAGAUCGGAAGAGCACACGU | 34 ± 7
12 | target 1 insG 3' of 10,insA 3' of 10 (mixed) RNA 1: CACCCGUGCAAAAAUGCAGGGGUCUAAAACUGAGCGGAUAACCUCUCUAUGG RNA 2: GGGAAUGGAUCCACAUCUACGAAUUCGUACCAUAGAGAGGUUGAAUCCGCUCACCGAGAUCGGAAGAGCACACGU | 10.7 ± 0.6
13 | target 1 insC 3' of 18,insC 3' of 15 (mixed) RNA 1: CACCCGUGCAAAAAUGCAGGGGUCUAAAACUGAGCGGAUAACCUCUCUAUGG RNA 2: GGGAAUGGAUCCACAUCUACGAAUUCGUACCAUACGAGCAGGUUAUCCGCUCACCGAGAUCGGAAGAGCACACGU | 56 ± 8
14 | target 1 insA 3' of 19,insG 3' of 3 (mixed) RNA 1: CACCCGUGCAAAAAUGCAGGGGUCUAAAACUGAGCGGAUAACCUCUCUAUGG RNA 2: GGGAAUGGAUCCACAUCUACGAAUUCGUACCAUAAGAGAGGUUAUCCGCUGCACCGAGAUCGGAAGAGCACACGU | 13.2 ± 0.6
15 | target 1 C4U,C6U (mixed) RNA 1: CACCCGUGCAAAAAUGCAGGGGUCUAAAACUGAGCGGAUAACCUCUCUAUGG RNA 2: GGGAAUGGAUCCACAUCUACGAAUUCGUACCAUAGAGAGGUUAUCUGUUCACCGAGAUCGGAAGAGCACACGU | 28 ± 8
16 | target 1 insA 3' of 21,insA 3' of 4 (mixed) RNA 1: CACCCGUGCAAAAAUGCAGGGGUCUAAAACUGAGCGGAUAACCUCUCUAUGG RNA 2: GGGAAUGGAUCCACAUCUACGAAUUCGUACCAAUAGAGAGGUUAUCCGCAUCACCGAGAUCGGAAGAGCACACGU | 10.2 ± 1.3
17 | target 1 insG 3' of 16,insC 3' of 16 (mixed) RNA 1: CACCCGUGCAAAAAUGCAGGGGUCUAAAACUGAGCGGAUAACCUCUCUAUGG RNA 2: GGGAAUGGAUCCACAUCUACGAAUUCGUACCAUAGAGCGAGGUUAUCCGCUCACCGAGAUCGGAAGAGCACACGU | 31.5 ± 1.8
18 | target 1 G12C,G13C (mixed) RNA 1: CACCCGUGCAAAAAUGCAGGGGUCUAAAACUGAGCGGAUAACCUCUCUAUGG RNA 2: GGGAAUGGAUCCACAUCUACGAAUUCGUACCAUAGAGACCUUAUCCGCUCACCGAGAUCGGAAGAGCACACGU | 30 ± 6
19 | target 1 G13C,G15A (mixed) RNA 1: CACCCGUGCAAAAAUGCAGGGGUCUAAAACUGAGCGGAUAACCUCUCUAUGG RNA 2: GGGAAUGGAUCCACAUCUACGAAUUCGUACCAUAGAAACGUUAUCCGCUCACCGAGAUCGGAAGAGCACACGU | 46 ± 9
20 | target 1 C2G,U3G (mixed) RNA 1: CACCCGUGCAAAAAUGCAGGGGUCUAAAACUGAGCGGAUAACCUCUCUAUGG RNA 2: GGGAAUGGAUCCACAUCUACGAAUUCGUACCAUAGAGAGGUUAUCCGCGGACCGAGAUCGGAAGAGCACACGU | 4.43 ± 0.34
21 | target 1 C2A,U8G (mixed) RNA 1: CACCCGUGCAAAAAUGCAGGGGUCUAAAACUGAGCGGAUAACCUCUCUAUGG RNA 2: GGGAAUGGAUCCACAUCUACGAAUUCGUACCAUAGAGAGGUUAGCCGCUAACCGAGAUCGGAAGAGCACACGU | 19.4 ± 1.3
22 | target 1 U3G,G15U (mixed) RNA 1: CACCCGUGCAAAAAUGCAGGGGUCUAAAACUGAGCGGAUAACCUCUCUAUGG RNA 2: GGGAAUGGAUCCACAUCUACGAAUUCGUACCAUAGAUAGGUUAUCCGCGCACCGAGAUCGGAAGAGCACACGU | ~60
23 | target 1 insU 3' of 5 (mixed) RNA 1: CACCCGUGCAAAAAUGCAGGGGUCUAAAACUGAGCGGAUAACCUCUCUAUGG RNA 2: GGGAAUGGAUCCACAUCUACGAAUUCGUACCAUAGAGAGGUUAUCCGUCUCACCGAGAUCGGAAGAGCACACGU | 18.1 ± 2.5
24 | target 1 insC 3' of 22,insA 3' of 10 (mixed) RNA 1: CACCCGUGCAAAAAUGCAGGGGUCUAAAACUGAGCGGAUAACCUCUCUAUGG RNA 2: GGGAAUGGAUCCACAUCUACGAAUUCGUACCCAUAGAGAGGUUAAUCCGCUCACCGAGAUCGGAAGAGCACACGU | 28.2 ± 3.4
25 | target 1 insA 3' of 5,insG 3' of 2 (mixed) RNA 1: CACCCGUGCAAAAAUGCAGGGGUCUAAAACUGAGCGGAUAACCUCUCUAUGG RNA 2: GGGAAUGGAUCCACAUCUACGAAUUCGUACCAUAGAGAGGUUAUCCGACUCGACCGAGAUCGGAAGAGCACACGU | 8.3 ± 0.7
26 | target 1 insA 3' of 15,insU 3' of 5 (mixed) RNA 1: CACCCGUGCAAAAAUGCAGGGGUCUAAAACUGAGCGGAUAACCUCUCUAUGG RNA 2: GGGAAUGGAUCCACAUCUACGAAUUCGUACCAUAGAGAAGGUUAUCCGUCUCACCGAGAUCGGAAGAGCACACGU | 27.9 ± 2.9
27 | target 1 insC 3' of 20,insU 3' of 7 (mixed) RNA 1: CACCCGUGCAAAAAUGCAGGGGUCUAAAACUGAGCGGAUAACCUCUCUAUGG RNA 2: GGGAAUGGAUCCACAUCUACGAAUUCGUACCACUAGAGAGGUUAUCUCGCUCACCGAGAUCGGAAGAGCACACGU | 13.2 ± 1
28 | target 1 C4G,C22A (mixed) RNA 1: CACCCGUGCAAAAAUGCAGGGGUCUAAAACUGAGCGGAUAACCUCUCUAUGG RNA 2: GGGAAUGGAUCCACAUCUACGAAUUCGUAACAUAGAGAGGUUAUCCGGUCACCGAGAUCGGAAGAGCACACGU | 5.9 ± 0.4
